# Reference: paper PMC3185043, “A SILAC-Based Screen for Methyl-CpG Binding Proteins Identifies RBP-J as a DNA Methylation and Sequence-Specific Binding Protein”
# B1: GSTP1 CpG-island oligo, methylated (EMSA) (dsDNA)
# DNA 1: AAGCAGACACTGGCAGGTTTCGGCGGGAGTCCGCGGGACCCTCCAGAAGAGCGGCCGGCGCCGTGACCTAAGGCTAAGGCTCATA
# DNA 2: TTTATGAGCCTTAGCCTTAGGTCACGGCGCCGGCCGCTCTTCTGGAGGGTCCCGCGGACTCCCGCCGAAACCTGCCAGTGTCTGC
# modifications: 5-methylcytosine at CpG (M.SssI)
# How the values were obtained:
# [1] = target: MBD2b (GST-tagged, purified) (Homo sapiens, UniProt Q9UBB5 150-411); assay: EMSA; multiple shifts; EMSA: 20 mM HEPES pH 7.9, 1 mM EDTA, 3 mM MgCl2, 10 mM beta-mercaptoethanol, 10% glycerol, 0.1% Triton X-100, 2 ug BSA, 10 ng poly(dI-dC), 30 min on ice; pull-down: 150 mM NaCl, 50 mM Tris pH 8.0, 0.25% NP40, 0.5 mM DTT, poly(dI-dC), 2 h 4 C; conditions: protein: recombinant; tags: GST; label: 32P
# [2] = target: RBP-J (GST-tagged, purified) (Homo sapiens, UniProt Q06330 1-500); assay: EMSA; multiple shifts; supershift with one of two antibodies; EMSA: 20 mM HEPES pH 7.9, 1 mM EDTA, 3 mM MgCl2, 10 mM beta-mercaptoethanol, 10% glycerol, 0.1% Triton X-100, 2 ug BSA, 10 ng poly(dI-dC), 30 min on ice; pull-down: 150 mM NaCl, 50 mM Tris pH 8.0, 0.25% NP40, 0.5 mM DTT, poly(dI-dC), 2 h 4 C; conditions: protein: recombinant; tags: His/GST; label: 32P
# RBP-J (GST-tagged, purified), sequence (Q06330 whole entry): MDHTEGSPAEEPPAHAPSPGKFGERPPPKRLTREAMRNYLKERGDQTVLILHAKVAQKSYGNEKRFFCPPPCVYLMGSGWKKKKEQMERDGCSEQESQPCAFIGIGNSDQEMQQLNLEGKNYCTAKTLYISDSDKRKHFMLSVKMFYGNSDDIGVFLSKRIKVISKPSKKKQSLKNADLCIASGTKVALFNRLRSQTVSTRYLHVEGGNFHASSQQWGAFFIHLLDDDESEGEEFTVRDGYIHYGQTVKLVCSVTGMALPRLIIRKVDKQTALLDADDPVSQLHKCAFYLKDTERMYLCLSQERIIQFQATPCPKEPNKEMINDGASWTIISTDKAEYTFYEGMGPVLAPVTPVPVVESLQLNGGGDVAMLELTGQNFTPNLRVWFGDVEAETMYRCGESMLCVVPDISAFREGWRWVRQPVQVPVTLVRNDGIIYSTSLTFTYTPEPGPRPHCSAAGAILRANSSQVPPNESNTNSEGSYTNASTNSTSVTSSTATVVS
# MBD2b (GST-tagged, purified), sequence (Q9UBB5 150-411): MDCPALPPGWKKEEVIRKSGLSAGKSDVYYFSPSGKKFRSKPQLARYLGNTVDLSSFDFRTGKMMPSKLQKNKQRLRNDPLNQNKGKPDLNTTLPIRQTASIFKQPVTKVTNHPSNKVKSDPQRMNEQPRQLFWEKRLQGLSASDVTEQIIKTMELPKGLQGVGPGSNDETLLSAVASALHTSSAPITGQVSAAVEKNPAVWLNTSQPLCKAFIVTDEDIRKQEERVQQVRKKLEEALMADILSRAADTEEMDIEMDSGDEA
binder,measurement,setting,value
B1,binding result,[1],binds
same,binding result,[2],binds
